Where “and” joins values, the source holds several entries; their conditions need not be identical. Identical values can stand only once.
T1: ECF16_3622
T1 chain: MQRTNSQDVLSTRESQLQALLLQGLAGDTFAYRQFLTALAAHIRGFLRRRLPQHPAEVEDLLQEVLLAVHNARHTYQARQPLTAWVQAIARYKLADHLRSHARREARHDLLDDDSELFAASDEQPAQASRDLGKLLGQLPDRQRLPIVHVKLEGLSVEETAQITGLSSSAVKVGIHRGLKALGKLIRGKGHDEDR

T2: ECF25_1643
T2 chain: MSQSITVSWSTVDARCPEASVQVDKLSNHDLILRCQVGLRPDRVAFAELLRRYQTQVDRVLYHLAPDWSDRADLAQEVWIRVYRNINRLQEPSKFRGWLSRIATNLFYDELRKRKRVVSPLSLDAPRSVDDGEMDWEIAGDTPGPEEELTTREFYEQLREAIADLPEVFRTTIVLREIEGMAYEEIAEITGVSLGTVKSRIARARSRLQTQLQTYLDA

T3: ECF04_1609
T3 chain: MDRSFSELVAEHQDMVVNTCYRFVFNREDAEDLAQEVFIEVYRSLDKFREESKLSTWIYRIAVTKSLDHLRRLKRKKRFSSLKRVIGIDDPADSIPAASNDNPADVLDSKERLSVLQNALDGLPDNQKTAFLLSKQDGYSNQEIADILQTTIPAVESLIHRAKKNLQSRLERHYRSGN

T4: ECF16_973
T4 chain: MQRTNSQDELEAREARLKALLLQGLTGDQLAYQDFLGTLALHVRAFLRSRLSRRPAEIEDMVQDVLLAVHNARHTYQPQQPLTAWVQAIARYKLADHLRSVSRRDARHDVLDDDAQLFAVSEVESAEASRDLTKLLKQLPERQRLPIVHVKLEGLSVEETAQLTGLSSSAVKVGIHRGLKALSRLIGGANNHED

T5: ECF17_1691
T5 chain: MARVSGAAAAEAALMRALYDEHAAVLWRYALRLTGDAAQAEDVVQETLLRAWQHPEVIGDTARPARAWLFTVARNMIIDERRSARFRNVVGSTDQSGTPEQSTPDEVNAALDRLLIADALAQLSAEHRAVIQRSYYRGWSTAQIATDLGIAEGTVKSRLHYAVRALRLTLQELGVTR

T6: ECF02_2817
T6 chain: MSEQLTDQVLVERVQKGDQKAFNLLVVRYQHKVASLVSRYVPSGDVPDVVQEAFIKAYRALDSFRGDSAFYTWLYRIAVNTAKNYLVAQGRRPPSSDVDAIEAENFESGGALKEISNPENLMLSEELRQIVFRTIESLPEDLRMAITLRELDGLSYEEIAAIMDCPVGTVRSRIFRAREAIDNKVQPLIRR

T7: ECF22_1147
T7 chain: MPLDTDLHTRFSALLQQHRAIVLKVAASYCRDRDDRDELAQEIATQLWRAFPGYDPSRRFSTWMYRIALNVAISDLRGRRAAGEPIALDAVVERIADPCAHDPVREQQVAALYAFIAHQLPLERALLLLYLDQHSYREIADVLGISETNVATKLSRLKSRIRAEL

T8: ECF22_4450
T8 chain: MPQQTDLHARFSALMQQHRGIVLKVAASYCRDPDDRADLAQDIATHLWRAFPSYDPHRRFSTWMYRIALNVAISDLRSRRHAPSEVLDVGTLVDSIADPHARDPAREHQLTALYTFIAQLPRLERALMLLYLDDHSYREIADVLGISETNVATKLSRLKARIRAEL

T9: ECF11_987
T9 chain: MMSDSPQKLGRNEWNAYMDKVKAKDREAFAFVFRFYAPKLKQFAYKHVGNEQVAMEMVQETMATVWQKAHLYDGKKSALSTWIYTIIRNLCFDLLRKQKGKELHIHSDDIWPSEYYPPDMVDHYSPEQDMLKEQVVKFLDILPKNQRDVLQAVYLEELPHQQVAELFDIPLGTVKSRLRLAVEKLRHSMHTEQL

T10: ECF15_436
T10 chain: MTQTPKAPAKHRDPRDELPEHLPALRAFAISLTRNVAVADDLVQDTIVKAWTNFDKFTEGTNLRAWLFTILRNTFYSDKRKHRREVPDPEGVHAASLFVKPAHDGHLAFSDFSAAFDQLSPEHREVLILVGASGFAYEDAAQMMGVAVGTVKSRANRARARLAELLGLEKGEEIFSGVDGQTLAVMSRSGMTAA

T11: ECF03_1198
T11 chain: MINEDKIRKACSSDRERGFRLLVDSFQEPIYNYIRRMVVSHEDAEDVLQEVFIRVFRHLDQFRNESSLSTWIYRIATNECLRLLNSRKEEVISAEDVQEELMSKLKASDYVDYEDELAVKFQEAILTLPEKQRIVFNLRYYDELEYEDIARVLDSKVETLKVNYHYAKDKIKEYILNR

T12: ECF35_3582
T12 chain: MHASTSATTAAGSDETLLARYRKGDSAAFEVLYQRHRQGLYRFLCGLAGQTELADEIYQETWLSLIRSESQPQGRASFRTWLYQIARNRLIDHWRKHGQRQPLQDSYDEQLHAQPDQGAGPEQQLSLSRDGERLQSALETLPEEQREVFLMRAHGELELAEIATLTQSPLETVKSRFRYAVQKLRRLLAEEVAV

T13: ECF27_4265
T13 chain: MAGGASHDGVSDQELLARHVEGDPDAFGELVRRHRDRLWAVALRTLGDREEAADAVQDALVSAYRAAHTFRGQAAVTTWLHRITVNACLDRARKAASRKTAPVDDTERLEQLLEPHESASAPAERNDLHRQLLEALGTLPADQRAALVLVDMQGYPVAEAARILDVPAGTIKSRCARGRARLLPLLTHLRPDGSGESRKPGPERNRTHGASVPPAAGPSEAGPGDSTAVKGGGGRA

T14: ECF12_807
T14 chain: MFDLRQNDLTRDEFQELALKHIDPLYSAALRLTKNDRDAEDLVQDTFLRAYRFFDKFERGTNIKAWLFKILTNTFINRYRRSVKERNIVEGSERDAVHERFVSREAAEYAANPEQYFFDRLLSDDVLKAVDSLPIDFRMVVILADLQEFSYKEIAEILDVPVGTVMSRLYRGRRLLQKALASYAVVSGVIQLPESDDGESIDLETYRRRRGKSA


Assays:
[1] = target: T1, ECF16_3622
[2] = target: T2, ECF25_1643
[3] = target: T3, ECF04_1609
[4] = target: T4, ECF16_973
[5] = target: ECF27_1331
[6] = target: T5, ECF17_1691
[7] = target: T6, ECF02_2817
[8] = target: T7, ECF22_1147
[9] = target: T8, ECF22_4450
[10] = target: T9, ECF11_987
[11] = target: T10, ECF15_436
[12] = target: T11, ECF03_1198
[13] = target: T12, ECF35_3582
[14] = target: T13, ECF27_4265
[15] = target: T14, ECF12_807
[16] = target: ECF26_4464

Binder	fold repression [1]	fold repression [2]	fold repression [3]	fold repression [4]	fold repression [5]	fold repression [6]	fold repression [7]	fold repression [8]	fold repression [9]	fold repression [10]	fold repression [11]	fold repression [12]	fold repression [13]	fold repression [14]	fold repression [15]	fold repression [16]
AS16_3622 (protein) MMKTDELISLLATAEGPVDRHALARRLGLALLAGLLGALLLTVALYGVRSDLAEVARTPLFWAKVALPTSLALLGLWLTQRLARPGVRGGALWGLLGVPLLLVWLGAAISLFGAPPEARADLIFGRTWRTCALNITLLSTPVFIAVFWALRGLAPTRLRQAGAAGGLLAGSTATLVYCLHCPEMGVPFWGLWYLLGMLVPTLLGAVLGPRLLRW	254	1.55 and 1.67	1.95	131	3.55	2.43	1.37	8.27	4.51	4.23	4.75	2.71	1.67	1.45	7.12	8.91
AS15_524 (protein) MNFGVEDMIEHVPMEDKRKGAAALDEARLRQQAIGVKLRQMFDEVVNEPVPDEFLAILRKAERPAGGE	7.87	2.89 and 3.07	6.89	4.98	11.5	5.16	2.65	6.96	11.1	3.74	16.7	3.92	2.42	4.51	5.51	28.2
AS20_992 (protein) MTPERFVHLADAYGADLQRWPSAERAAAQALLDCGDAQAVAALRQAHWLDSQLDRYQVPAPSPALAQRIIAAAQQPGAPFWSRYAGWLASLGWVGVGLTGVAAGMLAVALSLPLSTSAEALPSVFDQSDAEFVLSINAEEAEQ	1.71	1.63 and 1.33	1.95	1.7	2.11	2.05	1.74	2.47	2.29	2.81	1.32	1.53	1.6	1.1	1.4	2.04
AS22_1147 (protein) MELDDIAVAWRSLEQRLDQHAALAGQVLGDLRSHAARAHLRPLWLSQSAQLLCAIALSGLVAHSWLAFPEQAAAIVGGVLLQIWCVALAASAARQLWLLSQLDFARPLLQTQRALAQLRRWRTRVAPWLGVAFWVLWVAVADAAWRALTGRSLPYAWLLCNLLVGVLGGIGTWLGYRRLQRSGHPWLERLDTVHAGRSVARTETLLEQIARFQRE	2.91	2.46 and 1.99	3.52	2.57	3.07	1.74	2.38	6.19	35.7	3.16	3.01	2.82	1.94	1.86	3.45	3.82
AS02_915 (protein) MEKTGQEWVSASVDGETDRQTLAELAADTDSHAKWQRYHLMGDAMRDELPQAMPLDLSARIAAALEDEPTILAPKVEREATQAPSRAVVVPFMRQLGQYGIAAAVALMAVVGVQNYQSTQDDAPLPVLNTRPLVGTATPVSLQTGPVANQNQGNANDQLLEQRRRINAYLQDHMLQQRLNTGAVVDDNSEVTPIPVNR	4.3	3.46 and 2.7	3.74	3.34	4.27	2.73	5.22	4.49	4.13	3.88	3.47	3.28	2.65	2.08	9.79	3.42
AS16_973 (protein) MKTDDLIALLAAGEGPVPRHAVGRRMAVAALGGLTAALLLTITLYGVRSDITEVAQTPLFWGKVAFPTSLALIGLWLTSRLARPGGKGAAGWKMLGLPLLLVWCGAAVSIAGAPVDARADLLFGRTWRTCALNIALLSVPAFVTVFWALKGLAPTRLRLAGAAGGLLAGSSATVAYCLHCPEMGVPFWGVWYVLGMLVPTVLGAWWGPRMLRW	57	0.594 and 0.667	0.632	58.6	0.929	0.852	0.448	1.2	2.62	1.32	0.884	0.72	0.722	0.412	0.905	1.46
